Results from PMC3017428 (Molecular cell, 2010).

B1: Spn1(148–293) (domain or fragment, S. cerevisiae, UniProt Q06505 148-293, looked up)
chain: DDLEQYLDEKILRLKDEMNIAAQLDIDTLNKRIETGDTSLIAMQKVKLLPKVVSVLSKANLADTILDNNLLQSVRIWLEPLPDGSLPSFEIQKSLFAALNDLPVKTEHLKESGLGRVVIFYTKSKRVEAQLARLAEKLIAEWTRPI

Legend:
Assay in all cases: ITC
[1] = molecular target: T1, Spt6(239–1117) (S. cerevisiae, UniProt P23615 239-1117)
T1 sequence (looked up): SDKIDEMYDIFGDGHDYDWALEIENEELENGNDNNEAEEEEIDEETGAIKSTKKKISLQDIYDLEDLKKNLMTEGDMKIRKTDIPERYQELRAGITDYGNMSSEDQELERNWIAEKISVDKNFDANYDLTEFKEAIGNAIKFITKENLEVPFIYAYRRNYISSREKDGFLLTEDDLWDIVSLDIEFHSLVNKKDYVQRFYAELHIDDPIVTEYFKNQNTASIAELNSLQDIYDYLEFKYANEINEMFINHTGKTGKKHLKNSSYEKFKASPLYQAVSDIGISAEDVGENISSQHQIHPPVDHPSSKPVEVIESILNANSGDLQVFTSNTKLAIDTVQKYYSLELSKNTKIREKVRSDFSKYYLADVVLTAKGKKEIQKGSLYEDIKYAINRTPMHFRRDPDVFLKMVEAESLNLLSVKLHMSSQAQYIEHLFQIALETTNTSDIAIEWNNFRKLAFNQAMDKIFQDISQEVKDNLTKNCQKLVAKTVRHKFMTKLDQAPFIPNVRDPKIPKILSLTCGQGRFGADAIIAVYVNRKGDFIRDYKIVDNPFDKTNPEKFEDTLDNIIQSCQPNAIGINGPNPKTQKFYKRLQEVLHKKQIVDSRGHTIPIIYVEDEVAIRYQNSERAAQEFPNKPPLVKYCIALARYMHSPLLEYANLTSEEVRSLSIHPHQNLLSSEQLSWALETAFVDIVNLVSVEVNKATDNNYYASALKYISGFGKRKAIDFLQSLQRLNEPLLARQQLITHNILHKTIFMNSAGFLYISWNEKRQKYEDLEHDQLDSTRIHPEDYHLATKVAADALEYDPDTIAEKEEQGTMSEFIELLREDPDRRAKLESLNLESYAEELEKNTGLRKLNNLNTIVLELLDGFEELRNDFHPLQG

[2] = molecular target: B1
[3] = molecular target: T2, Spn1(148–293)-R263D (S. cerevisiae, UniProt Q06505 148-293, R263D)
T2 sequence (looked up): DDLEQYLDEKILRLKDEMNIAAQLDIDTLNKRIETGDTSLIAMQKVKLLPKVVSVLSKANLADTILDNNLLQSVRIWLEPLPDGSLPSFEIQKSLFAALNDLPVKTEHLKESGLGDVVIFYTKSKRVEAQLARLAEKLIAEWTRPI

## B1
[1]
  stoichiometry N: 1

## SDKIDEMYDIFGDGHDYDWALEIENEELEN (domain or fragment, S. cerevisiae, UniProt P23615 239-268, looked up) [Spt6(239–268)]
[2]
  stoichiometry N: 1
[3]
  Kd: 30 µM

## SDKIDEMYDIKGDGHDYDWALEIENEELEN (domain or fragment, S. cerevisiae, UniProt P23615 239-268, looked up) [Spt6(239–268)-F249K]
[2]
  Kd: 11 µM
